From the Human Domainome abundance scans (Beltran et al. 2025)

B1: Pre-mRNA-processing factor 40 homolog B, residues 274 to 332; numbered along this chain, Q6NWY9 (parent)
chain: SNREKAKQAFKELLRDKAVPSNASWEQAMKMVVTDPRYSALPKLSEKKQAFNAYKAQRE
B2: Lysine-specific demethylase 5C, residues 319 to 373; numbered along this chain, P41229 (parent)
chain: AQFIESYVCRMCSRGDEDDKLLLCDGCDDNYHIFCLLPPLPEIPKGVWRCPKCVM

Variants of: B1
Assay: abundance fitness (aPCA) (normalised: wild type 0, dead -1); higher = more abundant; growth selection in yeast, the domain comes from the species named
Conditions: Homo sapiens

Abundance fitness, by site and new letter:
R58: F -0.162, S -0.008, L 0.212, G 0.093, A 0.188, P -0.018, M 0.184, T -0.108, K 0.008, W 0.061, H -0.013, C 0.26, Q 0.16, Y 0.1, I -0.648, V 0.085, D -0.244
P42: S -0.131, G -0.156, E 0.018, T -0.093, L -0.287, C -0.518, N -0.628, Q -0.316, D -0.023, H -0.477, K -0.13, W -0.602, M -0.189, F -0.749, A -0.147, R -0.326, V -0.418, I -0.283
K47: C -0.606, A -0.458, W -0.765, P -0.365, M -0.497, H -0.427, I -0.972, T -0.447, N -0.718, E -0.477, S -0.46, V -0.644, Q -0.236, D -0.41, Y -0.567, R -0.142, L -0.605, F -0.304
E59: C -0.216, W -0.54, L -0.424, G -0.212, A 0.184, V 0.042, K 0.055, D -0.203, H -0.204, R -0.189, T -0.109, Q -0.033, S -0.397, M 0.167, F -0.53
A53: L -0.314, K -0.174, E 0.317, D 0.042, P -0.494, N -0.079, M -0.394, I -0.372, V -0.274, S -0.089, F -0.835, H -0.476, Y -0.524, R -0.452, G -0.293
L44: H -0.736, D -0.288, K -0.289, N -0.448, V -0.107, M -0.087, P -0.269, I -0.101, Y -0.809, A -0.12, Q -0.219, F -0.574, E 0.137, R -0.36, W -0.561, S -0.175, T -0.337
N52: T -0.231, Q 0.062, R -0.053, V -0.11, S -0.072, G -0.282, F -0.901, K 0.031, A -0.09, H -0.053, D -0.038, E 0.253, Y -0.21, L -0.04, M 0.039, W -0.431, C -0.129, P -0.367
E46: T -0.631, H -0.724, D 0.027, I -0.872, Q -0.147, V -0.672, K -0.939, G -0.694, P -0.817, M -0.413, F -1.03, Y -0.755, R -1.04, C -0.519, A -0.466, N -0.566, S -0.716, L -0.73
L41: D -0.439, H -0.785, I -0.268, K -0.372, Q -0.295, Y -0.34, W -0.486, C -0.438, P -0.295, M -0.176, R -0.552, S -0.519, T -0.214, E -0.189, A -0.451, V -0.16, N -0.443
K55: Q -0.239, Y -0.644, M -0.356, R -0.18, F -0.652, D -0.29, T -0.242, W -0.947, E -0.333, S -0.25, A -0.304, H -0.258, P -0.359, C 0.12, I -0.11, N -0.337, V -0.139
A40: G -0.206, L 0.008, T -0.312, D -0.739, Y -0.368, S 0.005, Q -0.417, R -0.304, E -0.42, P -0.675, K -0.27, M 0.177, W -0.588, V -0.075
A56: S -0.016, P -0.454, I -0.261, N -0.18, W -0.293, C -0.451, Y -0.351, R -0.116, F -0.526, H -0.102, T -0.122, V -0.076, G -0.242, L 0.034, Q 0.027, K -0.015, M -0.127
Q49: L -0.386, H -0.407, P -0.574, G -0.343, K -0.066, V -0.205, W -0.643, E 0.294, Y -0.544, F -0.636, S -0.162, A 0.112, R -0.116, D 0.021, C -0.239, T -0.364, I -0.307, N -0.481
K43: D 0.11, S 0.122, R -0.064, H -0.335, T 0.206, F -0.593, C 0.037, Y -0.691, W -0.362, V -0.482, E 0.035, L -0.196, N -0.105, A -0.014, G 0.001, M -0.115, P -0.359, I -0.655, Q -0.091
A50: T -0.43, E -0.224, P -0.351, F -0.485, M -0.076, W -0.627, K -0.765, S -0.382, Y -0.895, R -0.818, I -0.194, Q -0.212, H -0.606, C -0.008, G -0.462, N -0.629, L -0.084, D -0.299
Y54: E -0.363, L -0.085
F51: S -0.463, K -0.371, G -0.28, W -0.61
K48: Q -0.161, I -0.047, C -0.837, M -0.01, F -0.435, P -0.306, L 0.122, R -0.196, A -0.49, Y -0.259, N -0.545, T -0.45, E -0.344, D -0.579, W -0.532, H -0.335, G -0.664
S45: Q -0.15, H -0.016, D -0.097, V -0.457, G -0.265, A -0.136, P -0.369, C -0.484, F -0.233, E -0.027, L -0.541, K -0.117, I -0.458, T -0.211, W -0.427, R -0.303
Q57: L -0.527, P -0.249, T -0.165, F -0.514, S 0.027, E 0.248, I -0.565, V -0.257, W -0.138, Y -0.715, D 0.158, H -0.149, N -0.163, M -0.322, A 0.046, C -0.156, R -0.286

Variants of: B2
Assay: as above
Conditions: Homo sapiens

Abundance fitness: each site, then its substitutions
C35: A -0.83
D25: C -0.274
P38: D -0.35
F3: W -0.639
L22: H -0.612
C12: R -0.586
D16: I 0.089
A1: E -0.143
I33: K -0.423
D28: R 0.225
E42: A -0.05
C53: G -0.865
N30: I 0.219
V8: A -0.092
R14: S 0.188
G26: P -0.799
L37: W 0.182
C50: N -0.927, A -0.887
S6: V -0.377
I4: Y -0.687, C -0.106
